Target: Human Tau monomer (recombinant 2N4R isoform, amino acids 2-441) (human, UniProt P10636 2-441)
Assay: SPR

Human Tau monomer (recombinant 2N4R isoform, amino acids 2-441), sequence (P10636 other isoform, or with tags, fused parts or gaps): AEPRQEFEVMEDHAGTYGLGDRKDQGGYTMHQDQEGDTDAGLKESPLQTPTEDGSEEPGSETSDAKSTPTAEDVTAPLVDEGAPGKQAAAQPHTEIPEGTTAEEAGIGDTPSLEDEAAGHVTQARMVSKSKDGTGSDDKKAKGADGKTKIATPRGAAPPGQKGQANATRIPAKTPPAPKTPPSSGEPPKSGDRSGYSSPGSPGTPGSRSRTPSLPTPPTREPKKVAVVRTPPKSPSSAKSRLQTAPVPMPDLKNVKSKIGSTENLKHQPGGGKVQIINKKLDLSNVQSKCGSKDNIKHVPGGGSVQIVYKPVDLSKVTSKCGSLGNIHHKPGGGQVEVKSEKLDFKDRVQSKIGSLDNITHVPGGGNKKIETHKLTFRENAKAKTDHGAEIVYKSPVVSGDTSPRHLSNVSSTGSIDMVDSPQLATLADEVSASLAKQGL

Kd: 40.9 nM
Binder: EDLHSNADTYFL [hu37D3.v29.8]

Reference: patent US20190112362A1 (published 2019)
